Assay: yeast display, Sf9 membrane polyspecificity reagent, FACS + sequencing; frameworks hold sequencing errors
Method in brief: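 A nanobody's polyreactivity label depends on the gate it was sorted from. Yeast display cells were stained with 10% biotinylated, detergent-solubilized Sf9 membrane reagent for 1 hour at 4 °C, enriched on streptavidin microbeads and sorted by FACS. The low and high (top ~1%) gates were set on anti-HA fluorescence for expression and streptavidin fluorescence for reagent binding.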

Sequence | polyreactivity (PSR sort gate)
QVQLVESGGGLVQAGGSLRVSCAASGNSFTGYVMGWYRQAPGKERELVAAIRSGGSTYYADSVKGRFRISRDNAKNTVYLQMTSLKPEDTAVYYCNARYRYRLRGYDYWGQGTQVTVSS | high polyreactivity
QVQLVESGGGLVQAGGSLRLSCAASGRTLARNAMGWYRQAPGKERELVASINGRTTRTYYADSVKGRFTISRDNAKNTVYLQMNSLKPEDPAVYYCAARATNVYSKMDYWGQGTQVTVSS | high polyreactivity
QVQLVESGGGLVQAGGSLRLSCAASGRIFHRYAMGWYRQAPGKEREFVAAITYSTGTTYYADSVKGRFTISRDNAKNTVYLQMNSLKPEDTAVYYCAKDSRFWHKSWFAYGYDYWGQGTQVTVSS | low polyreactivity
QVQLVESGGGLVQAGGSLRLSCAASGIIFIKYAMGWYRQAPGKERELVAGINVSSGGDTYADSVKGRFTISRDNAKNTVYLQMNSLKPEDTAVYYCNAGTGGPDYVFITEYDYWGQGTQVTVSS | low polyreactivity
QVQLVESVGGLVQAGVSLRLSCAASGITFYGYAMGWYRQAPGKERELVATSTSGGSTYYADSVKGRFTISRDNAKNTVYLQMNSLKPVDTAVYYCAASRWYRRTRYGYWGQGTQLTVSS | high polyreactivity
QVQLVDSGGGLVQAGGSLRLTFAASGSIFAWYAMGLYRQEPGKERELVAVITRGGSTNYADSVKGRFTISRDNAKNTVYLPMISQKPEDTAVYYCAAGSYYSWYPFDYWGQGTQLTVSS | low polyreactivity
QVQLVESGGGLVQAGGSLRLSCAASGSIFPSNAMGWYRQAPGKERELVAAISSSGGRTYYADSVKGRFTISRDNAKNTVYLQMNSLKPEDTAVYYCNRVYFKSRQGQMYYWGQGTQVTVSS | high polyreactivity
QLQLVESGGGLVQAGGSLRLSCAASGRIFYVNAMGWYRPAPGKERELVAAISRSGSSTYYADSVKGRFTISRDNAKNTVYLQMNSLKPEDTADYYCAARYYGRSQHHFDYWGQGTQVTVSS | high polyreactivity
QFQLVESGGGLVQAGGSLRLSCAASGSIFDYYDLGWSRKAPGKERELGAAINWSGGITYYADSVKGRFTISRDNAKNTVYLQMNSLKPEDTGVYYCAADWYQWVYSSSITSFDYWGQGTQVTVSS | low polyreactivity
QVQLVESGGGLVQAGGSLRLSCAASGLTFGAYAMGWYRQAPGKEREFVAAITYSGGSTNYADSVKGRFTISRDNAKNTVYLQMISLKPEDTAVYYCNAGYYSPWAFYPYDYWGQGTQVTVSS | high polyreactivity
QVQLVESGGGLVQAGGSLRLSCAASGSIFAVNTMGWYRQAPGKERELVAAISQRGSSTYYADSVKGRFTISRDNAKNTVYLQMNSLKPEDTAVYYCAKRFIYGRYNYWGQGTQVTVSS | high polyreactivity
QVQLVESGGGLVQAGGSLRLSCAASGSIFGYSAMGWYRQAPGKERELVAAIDSGGSTYYADSVKGRFTISRDNAKNTVYLQMNSLKPQDTAVYYCAAGVSSFSPYDSWGQGTQVTVSS | low polyreactivity
QVQLVESGGGLVQAGGSLRLSCAASGSIFRPYAMGWYRQAPGTERELVAAITWSGGRTYYADSVKGRFTISRDTAKNTVYLQMNSLKPDDTAVYYCAADDSEGFDYWGQGTQVTVSS | high polyreactivity
QVQLVESGGGLVQAGGSLRLSCAASGRTFSYYAMGWYRQAPGKERELVAYITSSGGSTYYADSVKGRFTISRDNAKNTVYLQMNSLKPEDTAVYYCATRGGSRARGMDYWGQGTQVTVSS | high polyreactivity
QVQLVESGGGFVQAGGSLRLSCAASGSIFWTYAMGWYRPAPGNERELVATIPYSDGNTYYADSVKGRFTISRDHAKNTVYLQMNSLKPEDTAVYYGAADTVPDWQEYDYWGQGTQVTVSS | low polyreactivity
QVQLVESGAGFVQAGGSLRLTCAASGRNLSWYAMGWYRQAPGKEREYVAAITSSGASTYYADSVKGRFTISRDNAKNTVYLQMNSLKPEDTAVYYSNAAWRRVWFNYWGQGTQVTVSS | high polyreactivity
QVQLVESGVGLVQAGGSLRLSCVASGLTFSRYAMGWYRQAPGKERELVAAISRRGGTTYYADSVKGRFTISRDNAKNTVYLQMKSLKPEDTAVYYCGAGYITWGSGNWVVTPYAYWGQGTQVSVSS | high polyreactivity
QVQLVESGGGLVQAGGSLRISCAASGRTFYINAMGWYRQAPGKVWELVASISRSGGGTYYADSVKGRFTISRDNAKNNVYLQMNCLKPEDTAVYYCAAYSWSYSGYNFWGQGTQVTVSS | high polyreactivity
QVQIVETGGGLVQAGGSLRLSCAASGFIFSNYARGRYRQAPGKERELVAAISWSGGRTYYADSVKGRFTISRDNAKNSVYLQMNSLKPEDTAVYYCATRYGSASGREYEYWGQGTQVTVSS | high polyreactivity
QVQRVESGGGLVQAGGSLRLSCAASGRIFRYYAMGWYRQAPGKERELVAAISRSSGSTYYADSVKGRFTISRDNAKNTVYLQMNSLKPEDTAVYYCATAFYSYGRYPQSYYWGQGTQVTVSS | high polyreactivity

Sequence | polyreactivity (PSR sort gate)
QVQLVESGGGLVQAGGSLRLSCAASGSIFPAIAKGWYRQAPGTERELVAAISVSGARTYYADSVKGRFTISRDNAKNTVYLQMNSLKPEDTAVYYCAARAAGSQHDYWGQGTQVTVSS | high polyreactivity
QVQLVESGGGLVQAGGSLRLSCAASGRPLGQNVMGWYRQAPGKERELVAASSSNTAGNTYYADSVKGRFTISRDNAKNTVYLQMNSLKAEDTAVYYCAKVDSFEAKLDYWGQGTQVTVSS | low polyreactivity
QVQLVESGGGLVQAGGSLRLSCAASGSTFFLYAMGWYRQAPGKERELVAAITYTDGDTYYADSVKGRFTISRDNAKNTVYLQMNSLKPEDTAVFYCNAGGDEPVYGSGYDYWGQGTQVTVSS | low polyreactivity
QVQLVESGGGLVQAGGSLRLSCAASGNTFVPYAMGWYIQAPRKEREFVAAISSTSGSTYYADSVKGRITISRDNAKNTVYLQMNSLKPEDTAVYYCATKRPYSSKRYKYWKVDYWGQGTQVTVSS | high polyreactivity
QVQLLESGGGLVQAGGSLRLSCAASGSTFGVYAMGWYRQAPGKEREFVAAINARGTRTRYADSVKGRFTISRDNAKNTVYLQMNSLKPDDTAVYYCAAVWYGYYSIDTYGYWGQGTQVTVSS | high polyreactivity
QVQLVESGGGLVQAGGSLRLSCAASGSILDNYGMGWYRQAPGKERELVASISGGAGSPNYADSVKGRFTISRDNAKNTVYLQMYSLKPEVTAVYDCNADQIFGPALNLWKLDYWGQGNQVTVSS | low polyreactivity
QVQLVESGGGLVQAGGSLRLSCAASGITCSYYTIGWYRQATGKEWELVATISQSSGSTYYADSVKGRFTISRDNAKNTVYLQINTLKPEDTAVYYCKARRDYEWVSWNVVDDYWGQGTQVTVSS | high polyreactivity
QVQLVESGGGLVQAGGSLRLSCAASGLIFNIYAMGWYRQAPGKERELVAAISKSGGSTYYADSVKGRFTISRDNAKNTVYLQMNSLKPEDTAVYYCAAPYLVRSQRYYYWGQGTQVTVSS | high polyreactivity
QVQHVESVGGLVQAGGSLRLSCASSASIFRPNAMGWYRQAPGKDRELVAAITWSGDSTYYADSVKGRFTISRDNAKNTVYLQMNSLKPEDTAVYYCAADFTYQGSSPNYYWGQGTQVTVSS | low polyreactivity
QVQLVESGGGLVQSGGSLRLRCAASGRIFGGYAMGWYRQAPGKERELVAAISWRGGSTSYADSVKGRFTISRDNAKNTVYLQMNSLKPEDTAVYYCAKYWGHTYGSWGQGTQVTVSS | high polyreactivity
HVQLVESAGGLVQAGGRLSLSCAAYGSICDRYAMGWYRQAPGKEREKVAAIYSSGGRTYYADSVKGRFTISRDNAKNTVYLQMKSLKPEDTAVYYCNAEFWGGTPVAFSADYEYWGQGTQVTVSS | high polyreactivity
QVQLGESGGGLVQAGGSLRLSCAASARNSSFYEMGWYRQAPGKGSELVAAINWDDGTTYYADSVMGRFTISRDNAQNNVYFQKNSLNPEDTAVYYCAVEGFSSAAYDFEYWGQGSQVTVSS | high polyreactivity
QVQLVESGGGLVQAGGSLRLSCAASGSTFYWYTMGWYRQAPGKERELVATITSSGGRTYYADSVKGRFTISRDNAKNTVYLQMNSLKPEDTAVYYCAAYRRNSRWELDYWGQGTQVTVSS | high polyreactivity
QVQLVESGGGLVQAGGSLRLSCAASGSIFSRNAMGWYRQARGKERELVAAISWRGGSTYYADSVKGRFTISRDNAKNTGYLQMNSLKPEDTAVYYCAAVYQFIKWGDRYEYWGQGTQVTVSS | high polyreactivity
QVQLVESGGGLVQAGGSLRLSCAASGSTFQTYAMGGYRQAPGKEREFVAAITSGGSTNYADSVKGRFTISRDNAKNTVYLQMNSLKPEDTAVYYCAVRQIYQTSDHRLQYDYWGQGTQVTVSS | low polyreactivity
QVQRVESGGGLVQAGGRLRLSSSASGSIFPTNTMGLSRQSPGKERELVAAITGSGGSRYYADSVKGRFTISRDNAKNTVYLQMNSLKPEDTAVYYCAARYRVDGVKYGYWGQGTQVTVSS | high polyreactivity
QVQLVESGGGLVQAGGSLRLSCAASGSIFVRNAMGWYRQAPGKERELVAAITSDVNTYYADSVKGRFTISRDNGKNTVYLQMNSLKPEDTAVYYCAKGVTSQPNDPAPFPRYEYWGQGTQVTVSS | low polyreactivity
QVQLVESGGGLVQAGGSLRLSCSASGRTFYRNAMGWYRQSPGKESEFVAVISVSGGSTYYADSVKGRFTISRDNAKNTVYLQMNSLKPEDTAVYYCAADEYYTFSCFELRRMDYWGQGTQVTVSS | low polyreactivity
QVQLVESGGGLVQAGGSLRLSCASSGRTFPGNAMGWYRQAPGKERELVATISSGGTTNYADSVKGRFTISRDNAKNTVYLQMNSLKPDDTAFYYCATDTYHHKADYEYWGQGTQVTLSS | low polyreactivity
QVQLVESGGRIDQAGGRLRLSCAASGSIFDWYAMGWYRQAPGKERELVAAIDSSGSSTYYADSVKGRFTISRDNAKNTVYLQMNSLIPEDTAVYYCAADSDWIRYWFGSLYGSDYWGQGTQVSVSS | low polyreactivity

— the nanobody polyreactivity screen of Harvey et al. (2022)
